This test addresses cathepsin B (human, UniProt P07858 80-333). In words: cell-based or functional assay.

B1: IGFBP-2 full-length protein (aas 1-328), produced at BRI-NRC (other)
chain: MLPRVGCPALPLPPPPLLPLLPLLLLLLGASGGGGGARAEVLFRCPPCTPERLAACGPPPVAPPAAVAAVAGGARMPCAELVREPGCGCCSVCARLEGEACGVYTPRCGQGLRCYPHPGSELPLQALVMGEGTCEKRRDAEYGASPEQVADNGDDHSEGGLVENHVDSTMNMLGGGGSAGRKPLKSGMKELAVFREKVTEQHRQMGKGGKHHLGLEEPKKLRPPPARTPCQQELDQVLERISTMRLPDERGPLEHLYSLHIPNCDKHGLYNLKQCKMSLNGQRGECWCVNPNTGKLIQGAPTIRGDPECHLFYNEQQEARGVHTQRMQGSGWSHPQFEKTGHHHHHHHHGGQ
Take B1: the “inhibition of intracellular cathepsin B activity (Magic Red) in U87MG cells, overnight incubation with 20 nM protein” value was about 50% and the “inhibition of secreted cathepsin B activity in U87MG CM, overnight incubation with 20 nM protein” value was about 60%.

B2: CIBP6 (aas 151-240) (other)
chain: IARNSAGVQDTEMGPCRRHLDSVLQQLQTEVYRGAQTLYVPNCDHRGFYRKRQCRSSQGQRRGPCWCVDRMGKSLPGSPDGNGSSSCPTGSSGSSTGHHHHHHHHG
As to B2, the “inhibition of secreted cathepsin B activity in U87MG CM, overnight incubation with 20 nM protein” value was about 60%.

B3: IGFBP-2 (from R&D systems) (other)
chain: MLPRVGCPALPLPPPPLLPLLPLLLLLLGASGGGGGARAEVLFRCPPCTPERLAACGPPPVAPPAAVAAVAGGARMPCAELVREPGCGCCSVCARLEGEACGVYTPRCGQGLRCYPHPGSELPLQALVMGEGTCEKRRDAEYGASPEQVADNGDDHSEGGLVENHVDSTMNMLGGGGSAGRKPLKSGMKELAVFREKVTEQHRQMGKGGKHHLGLEEPKKLRPPPARTPCQQELDQVLERISTMRLPDERGPLEHLYSLHIPNCDKHGLYNLKQCKMSLNGQRGECWCVNPNTGKLIQGAPTIRGDPECHLFYNEQQEARGVHTQRMQ
With B3, the “inhibition of intracellular cathepsin B activity (Magic Red) in U87MG cells, overnight incubation with 20 nM protein” value is about 50%.

B4: IGFBP-2 C-terminal fragment (aas 207-328 of SEQ ID NO: 3) (other)
chain: IASKGGKHHLGLEEPKKLRPPPARTPCQQELDQVLERISTMRLPDERGPLEHLYSLHIPNCDKHGLYNLKQCKMSLNGQRGECWCVNPNTGKLIQGAPTIRGDPECHLFYNEQQEARGVHTQRMQDPWSHPQFEKTGHHHHHHHHGGQ
Take B4: the “inhibition of intracellular cathepsin B activity (Magic Red) in U87MG cells, overnight incubation with 20 nM protein” value was about 50% and the “inhibition of secreted cathepsin B activity in U87MG CM, overnight incubation with 20 nM protein” value is about 70%.

B5: IGFBP-5 C-terminal fragment (aas 177-272) (other)
chain: IASIISAPEMRQESEQGPCRRHMEASLQELKASPRMVPRAVYLPNCDRKGFYKRKQCKPSRGRKRGICWCVDKYGMKLPGMEYVDGDFQCHTFDSSNVEDPWSHPQFEKTGHHHHHHHHGGQ
For B5, the “inhibition of intracellular cathepsin B activity (Magic Red) in U87MG cells, overnight incubation with 20 nM protein” value is about 50%.

B6: IGFBP-6 (from R&D systems) (other)
chain: RCPGCGQGVQAGCPGGCVEEEDGGSPAEGCAEAEGCLRREGQECGVYTPNCAPGLQCHPPKDDEAPLRALLLGRGRCLPARAPAVAEENPKESKPQAGTARPQDVNRRDQQRNPGTSTTPSQPNSAGVQDTEMGPCRRHLDSVLQQLQTEVYRGAQTLYVPNCDHRGFYRKRQCRSSQGQRRGPCWCVDRMGKSLPGSPDGNGSSSCPTGSSG
With B6, the “inhibition of secreted cathepsin B activity in U87MG CM, overnight incubation with 20 nM protein” value is about 60%.

(Values after patent publication US20160082083A1 (NATIONAL RESEARCH COUNCIL OF CANADA, published 2016).)
